Drawing on patent US20180043014A1, this text covers GeoMean for one substance.

Assay [1] concerns the target GPNMB (CG56972) on the surface of human tumor cell lines (human) (UniProt Q14956). Briefly: flow cytometry, SF539 (printed SF549) cells, untreated, 24 h; background control. For orientation: Flow cytometry measures light scatter and fluorescence of single cells or particles in a stream.
The target is the same in assay [2]. Kind of assay: flow cytometry, SF539 (printed SF549) cells, untreated, 48 h; background control.
The target is the same in assay [3]. Briefly: flow cytometry, SKMEL2 cells, untreated; background control.
Assay [4] shares this target. Briefly: flow cytometry, SF539 (printed SF549) cells, untreated, 12 h; background control.
For assay [5] the target is unchanged. Briefly: flow cytometry, A375 cells, untreated, 48 h; background control.
Assay [6] has the same target. Briefly: flow cytometry, WM2664 cells, untreated; background control.
For assay [7] the target is unchanged. Kind of assay: flow cytometry, A375 cells, untreated, 24 h; background control.
The target is the same in assay [8]. Briefly: flow cytometry, A375 cells, untreated, 12 h; background control.
Assay [9] shares this target. Briefly: flow cytometry on intact, non-permeabilized A375 melanoma cells, Treatment: None; primary antibody 10 ug/mL per methods, geometric mean fluorescence intensity.

Chain of GPNMB (CG56972) on the surface of human tumor cell lines (human) (Q14956 23-492): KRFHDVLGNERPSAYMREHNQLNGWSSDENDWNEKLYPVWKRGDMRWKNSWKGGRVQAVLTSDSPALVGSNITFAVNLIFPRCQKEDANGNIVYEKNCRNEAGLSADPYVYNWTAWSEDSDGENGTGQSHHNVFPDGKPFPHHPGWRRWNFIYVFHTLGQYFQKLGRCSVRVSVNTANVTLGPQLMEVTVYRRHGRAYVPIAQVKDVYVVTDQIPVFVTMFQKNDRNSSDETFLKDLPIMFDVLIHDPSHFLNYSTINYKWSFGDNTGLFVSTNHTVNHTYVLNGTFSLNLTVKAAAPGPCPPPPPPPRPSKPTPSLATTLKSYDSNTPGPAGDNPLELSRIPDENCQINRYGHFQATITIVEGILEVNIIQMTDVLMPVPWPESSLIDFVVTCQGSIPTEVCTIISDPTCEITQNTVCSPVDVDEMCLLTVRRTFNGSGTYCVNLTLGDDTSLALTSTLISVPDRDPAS

As to “unrelated human IgG2 isotype control monoclonal antibody”, the GeoMean in assay [1] worked out at 8.7; in [2], 9.5; in assay [3], 6.9; in assay [4] it was 8.2; in assay [5], 7.8; in assay [6] it was 7.3. The GeoMean in assay [7] was 7.5; in assay [8] it was 7.4; in assay [9], 8.4.
